Changes are numbered by the printed parent chain. Names and notes keep the numbering of the source.

Among the data in PMC9352680, “A comprehensive thermodynamic model for RNA binding by the Saccharomyces cerevisiae Pumilio protein PUF4” are Kd values, retold here.

T1: PUF4 RNA-binding domain (Saccharomyces cerevisiae, UniProt P25339 537-888)
T1 sequence: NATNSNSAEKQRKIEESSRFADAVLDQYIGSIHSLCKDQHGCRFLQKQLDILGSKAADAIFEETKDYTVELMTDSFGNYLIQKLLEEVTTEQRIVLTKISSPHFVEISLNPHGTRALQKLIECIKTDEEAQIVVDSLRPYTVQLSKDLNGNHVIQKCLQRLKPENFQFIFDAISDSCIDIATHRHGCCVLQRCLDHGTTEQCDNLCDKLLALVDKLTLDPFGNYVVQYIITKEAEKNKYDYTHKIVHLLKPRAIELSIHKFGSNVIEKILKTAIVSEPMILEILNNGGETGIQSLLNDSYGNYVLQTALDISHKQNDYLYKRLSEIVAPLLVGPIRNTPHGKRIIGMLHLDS

B1: Ie_S2_P4E.1_K4.1_C4.1_H4.1_A4.1_[+6CTCTC]_F4.1_T4.1 (ssRNA)
RNA: UUUGAUUAAUAUGAUAUCGUUCUUUCUUGUAUACUCUCUUAUUCUUUCUCGAUAUCAUAUUAAUCUUU
B2: Ie_S2_P4E.1_K4.1_C4.1_H4.1_A4.1_F4.1_[+8TCTCT]_T4.1 (ssRNA)
RNA: B1 RNA with C34U, C36U, U37C, C38U, U39C
B3: Ie_S2_P4E.1_K4.1_C4.1_H4.1_A4.1_F4.1_[+9CCCTT]_T4.1 (ssRNA)
RNA: B1 RNA with C34U, C36A, U37C, U39C, A41U
B4: Ie_S2_P4E.1_K4.1_C4.1_H4.1_A4.1_F4.1_[+9CCTCT]_T4.1 (ssRNA)
RNA: B1 RNA with C34U, C36A, U37C, U40C, A41U
B5: Ie_S2_P4E.1_K4.1_C4.1_H4.1_A4.1_F4.1_[+9TTCCT]_T4.1 (ssRNA)
RNA: B1 RNA with C34U, C36A, C38U, U39C, U40C, A41U
B6: Ie_S2_P4E.1_K4.1_C4.1_H4.1_A4.1_[+6CCCTT]_F4.1_T4.1 (ssRNA)
RNA: B1 RNA with U35C, C38U
B7: Ie_S2_P4E.1_K4.1_C4.1_H4.1_A4.1_F4.1_[+8TTCCT]_T4.1 (ssRNA)
RNA: B1 RNA with C34U, C36U, U39C
B8: Ie_S2_P4E.1_K4.1_C4.1_H4.1_A4.1_F4.1_[+9TCTCT]_T4.1 (ssRNA)
RNA: B1 RNA with C34U, C36A, U40C, A41U
B9: Ie_S2_P4E.1_K4.1_C4.1_H4.1_A4.1_[+7CTCTC]_F4.1_T4.1 (ssRNA)
RNA: B1 RNA with C34U, U35C, C36U, U37C, C38U, U39C
B10: Ie_S2_P4E.1_K4.1_C4.1_H4.1_A4.1_F4.1_[+8CCTCT]_T4.1 (ssRNA)
RNA: B1 RNA with C34U, U37C, C38U, U39C
B11: Ie_S2_P4E.1_K4.1_C4.1_H4.1_A4.1_F4.1_[+9CTCTC]_T4.1 (ssRNA)
RNA: B1 RNA with C34U, C36A, U37C, C38U, U39C, A41C
B12: Ie_S2_P4E.1_K4.1_C4.1_H4.1_A4.1_F4.1_[+8C]_T4.1 (ssRNA)
RNA: UUUGAUUAAUAUGAUAUCGUUCUUUCUUGUAUAUUCAUUCUUUCUCGAUAUCAUAUUAAUCUUU
B13: Ie_S2_P4E.1_K4.1_C4.1_H4.1_A4.1_F4.1_[+9T]_T4.1 (ssRNA)
RNA: B12 RNA with C36A, A37U
B14: Ie_S2_P4E.1_K4.1_C4.1_H4.1_A4.1_F4.1_[+9C]_T4.1 (ssRNA)
RNA: B12 RNA with C36A, A37C
B15: Ib_S2_P3E.1_K3.1_C3.1_H3.1_A3.1_[A6T]_F3.1_[A8T]_T3.1 (ssRNA)
RNA: UUUGAUUAAUAUGAUAUCGUUCUUUCUUGUAUUUUUUCUUUCUCGAUAUCAUAUUAAUCUUU
B16: Ia_S2_P3E.1_K3.1_C3.1_H3.1_[A4C]_A3.1_F3.1_T3.1 (ssRNA)
RNA: B15 RNA with A31C, U33A, U35A
B17: Ib_S2_P3E.1_K3.1_C3.1_H3.1_[T1C]_[G2C]_A3.1_F3.1_T3.1 (ssRNA)
RNA: B15 RNA with U28C, G29C, U33A, U35A
B18: Ib_S2_P3E.1_K3.1_C3.1_H3.1_[T1G]_[G2T]_A3.1_F3.1_T3.1 (ssRNA)
RNA: B15 RNA with U28G, G29U, U33A, U35A
B19: Ib_S2_P3E.1_K3.1_C3.1_H3.1_[T1G]_[G2C]_A3.1_F3.1_T3.1 (ssRNA)
RNA: B15 RNA with U28G, G29C, U33A, U35A
B20: Ie_S2_P4E.1_K4.1_C4.1_H4.1_A4.1_[+7CCC]_F4.1_T4.1 (ssRNA)
RNA: UUUGAUUAAUAUGAUAUCGUUCUUUCUUGUAUAUCCCUAUUCUUUCUCGAUAUCAUAUUAAUCUUU
B21: Ie_S2_P4E.1_K4.1_C4.1_H4.1_A4.1_F4.1_[+9TTC]_T4.1 (ssRNA)
RNA: B20 RNA with C35U, C36A, C37U, A39C
B22: Ie_S2_P4E.1_K4.1_C4.1_H4.1_A4.1_F4.1_[+9TTT]_T4.1 (ssRNA)
RNA: B20 RNA with C35U, C36A, C37U, A39U
B23: Ie_S2_P4E.1_K4.1_C4.1_H4.1_A4.1_F4.1_[+8CTC]_T4.1 (ssRNA)
RNA: B20 RNA with C35U, C37U, U38C
B24: Ie_S2_P4E.1_K4.1_C4.1_H4.1_A4.1_F4.1_[+8CCT]_T4.1 (ssRNA)
RNA: B20 RNA with C35U
B25: Ie_S2_P4E.1_K4.1_C4.1_H4.1_A4.1_F4.1_[+8TCC]_T4.1 (ssRNA)
RNA: B20 RNA with C35U, C36U, U38C
B26: Ie_S2_P5E.1_K5.1_C5.1_H5.1_[+1CC]_A5.1_F5.1_T5.1 (ssRNA)
RNA: B20 RNA with G29C, U30C, A31G, C35U, C36A, C37U
B27: Ie_S2_P4E.1_K4.1_C4.1_H4.1_A4.1_[+7CTC]_F4.1_T4.1 (ssRNA)
RNA: B20 RNA with C36U
B28: Ie_S2_P4E.1_K4.1_C4.1_H4.1_A4.1_F4.1_[+9CCC]_T4.1 (ssRNA)
RNA: B20 RNA with C35U, C36A, U38C, A39C
B29: Ie_S2_P4E.1_K4.1_C4.1_H4.1_A4.1_[+6CCTC]_F4.1_T4.1 (ssRNA)
RNA: UUUGAUUAAUAUGAUAUCGUUCUUUCUUGUAUACCUCUUAUUCUUUCUCGAUAUCAUAUUAAUCUUU
B30: Ie_S2_P4E.1_K4.1_C4.1_H4.1_A4.1_F4.1_[+8CCCT]_T4.1 (ssRNA)
RNA: B29 RNA with C34U, C35U, U36C, U38C
B31: Ie_S2_P5E.1_K5.1_C5.1_H5.1_[+1TTC]_A5.1_F5.1_T5.1 (ssRNA)
RNA: B29 RNA with G29U, A31C, U32G, A33U, C34A, C35U, C37A
B32: Ie_S2_P4E.1_K4.1_C4.1_H4.1_A4.1_[+7CCCT]_F4.1_T4.1 (ssRNA)
RNA: B29 RNA with C34U, U36C
B33: Ie_S2_P5E.1_K5.1_C5.1_H5.1_[+1CTC]_A5.1_F5.1_T5.1 (ssRNA)
RNA: B29 RNA with G29C, A31C, U32G, A33U, C34A, C35U, C37A
B34: Ie_S2_P4E.1_K4.1_C4.1_H4.1_A4.1_[+7CCTC]_F4.1_T4.1 (ssRNA)
RNA: B29 RNA with C34U, U36C, C37U, U38C
B35: Ie_S2_P5E.1_K5.1_C5.1_H5.1_[+1TCC]_A5.1_F5.1_T5.1 (ssRNA)
RNA: B29 RNA with G29U, U30C, A31C, U32G, A33U, C34A, C35U, C37A
B36: Ie_S2_P4E.1_K4.1_C4.1_H4.1_A4.1_F4.1_[+8CCTC]_T4.1 (ssRNA)
RNA: B29 RNA with C34U, C35U, U36C, U39C
B37: Ie_S2_P5E.1_K5.1_C5.1_H5.1_[+1TCT]_A5.1_F5.1_T5.1 (ssRNA)
RNA: B29 RNA with G29U, U30C, A31U, U32G, A33U, C34A, C35U, C37A
B38: Ie_S2_P4E.1_K4.1_C4.1_H4.1_A4.1_F4.1_[+8CTCT]_T4.1 (ssRNA)
RNA: B29 RNA with C34U, C35U, U36C, C37U, U38C
B39: Ie_S2_P4E.1_K4.1_C4.1_H4.1_A4.1_F4.1_[+9TCTC]_T4.1 (ssRNA)
RNA: B29 RNA with C34U, C35U, U36A, C37U, U38C, A40C
B40: Ie_S2_P5E.1_K5.1_C5.1_H5.1_[+1CCC]_A5.1_F5.1_T5.1 (ssRNA)
RNA: B29 RNA with G29C, U30C, A31C, U32G, A33U, C34A, C35U, C37A
B41: Ie_S2_P4E.1_K4.1_C4.1_H4.1_A4.1_[+6CCCT]_F4.1_T4.1 (ssRNA)
RNA: B29 RNA with U36C, C37U
B42: Ie_S2_P4E.1_K4.1_C4.1_H4.1_A4.1_[+7CC]_F4.1_T4.1 (ssRNA)
RNA: UUUGAUUAAUAUGAUAUCGUUCUUUCUUGUAUAUCCUAUUCUUUCUCGAUAUCAUAUUAAUCUUU
B43: Ie_S2_P4E.1_K4.1_C4.1_H4.1_A4.1_F4.1_[+9TC]_T4.1 (ssRNA)
RNA: B42 RNA with C35U, C36A, A38C
B44: Ie_S2_P4E.1_K4.1_C4.1_H4.1_A4.1_F4.1_[+8CC]_T4.1 (ssRNA)
RNA: B42 RNA with C35U, U37C
B45: Ie_S2_P4E.1_K4.1_C4.1_H4.1_A4.1_F4.1_[+8CT]_T4.1 (ssRNA)
RNA: B42 RNA with C35U
B46: Ie_S2_P4E.1_K4.1_C4.1_H4.1_A4.1_F4.1_[+9CC]_T4.1 (ssRNA)
RNA: B42 RNA with C35U, C36A, U37C, A38C
B47: Ie_S2_P4E.1_K4.1_C4.1_H4.1_A4.1_F4.1_[+8TC]_T4.1 (ssRNA)
RNA: B42 RNA with C35U, C36U, U37C

This data set addresses T1, PUF4 RNA-binding domain. The experiment in a line: Mg; RNA-MaP; 20 mM Na-HEPES pH 7.4, 30 mM KOAc, 0.75 mM MgCl2, 0.1% Tween-20, 5% glycerol, 0.1 mg/mL BSA, 2 mM DTT; 25 C; 0.0125-409.6 nM protein. The settings on record: tags: N-His6-TEV cleaved; C-SNAP kept, Cy3B-labelled; label: tethered on chip by stalled RNA polymerase.
B1 came in with a Kd of 6.56 nM.
Next, B2: 3.78 nM; B3: 0.523 nM.
With B4 the figure was 0.733 nM; with B5, 0.282 nM.
The molecule B6 came in with an equilibrium dissociation constant (Kd) of 20.8 nM.
With B7 the figure was 3.81 nM.
As for B8, the Kd was found to be 0.382 nM.
In turn, B9 yielded a Kd of 9 nM.
Molecule B10 yielded a Kd of 4.43 nM.
For B11, binding was characterised by a dissociation constant (Kd) of 0.532 nM.
In the case of B12, the Kd came out at 6.81 nM.
With B13 the figure was 0.265 nM; with B14, 1.33 nM.
B15 gave a Kd of 10.5 nM.
On to B16, for which the Kd came to 184 nM.
As to B17, the Kd stood at 495 nM.
Next, B18: 15.6 nM.
With B19, binding was put at a Kd of 798 nM.
B20 had a Kd of 13.5 nM.
Take B21: the affinity, expressed as Kd, was 0.446 nM.
In turn, B22 returned a Kd of 0.208 nM.
In turn, B23 yielded a Kd of 5.23 nM.
The molecule B24 came in with a Kd of 3.9 nM.
In the case of B25, the Kd is 3.54 nM.
As to B26, the Kd amounted to 565 nM.
On to B27, for which binding was characterised by a dissociation constant (Kd) of 8.21 nM.
B28: the Kd was found to be 0.512 nM.
For B29, binding was characterised by a dissociation constant (Kd) of 14.8 nM.
Molecule B30 displayed a Kd of 3.71 nM.
With B31 the figure was 374 nM; with B32, 10.1 nM; with B33, 355 nM.
In turn, B34 gave a Kd of 12.2 nM.
Take B35: the Kd stood at 198 nM.
With B36 the figure was 4.56 nM; with B37, 1.14 nM; with B38, 4.74 nM.
Next, B39: 0.324 nM; B40: 178 nM; B41: 26.5 nM.
B42 had a Kd of 11.7 nM.
Molecule B43 had a Kd of 0.411 nM.
Molecule B44 had a Kd of 5.04 nM.
B45 displayed a Kd of 3.57 nM.
As for B46, the Kd was found to be 0.543 nM.
Regarding B47, the Kd turned out to be 6.93 nM.
